Results published in patent US20230383012A1 (published 2023).
One block for each binder: values may come before it.

Experiments:
human CD28 antigen = human CD28 antigen (human, UniProt P10747 19-152); test: Octet; VHVL
XPL2-BC-12B7-hIgG1 = test: Biacore
XPL2-BC-1G10-hIgG1 = test: Biacore
XPL2-BC-5F2-hIgG1 = test: Biacore
XPL2-BC-8H8-hIgG1 = test: Biacore
XPL2-BC-12B2-hIgG1 = test: Biacore
XPL2-BC-1E12-hIgG1 = test: Biacore
XPL2-BC-10H5-hIgG1 = test: Biacore
XPL2-BC-3A9-hIgG1 = test: Biacore
XPL2-BC-5F1-hIgG1 = test: Biacore
XPL2-BC-12A11-hIgG1 = test: Biacore
XPL2-BC-7D3-hIgG1 = test: Biacore
XPL2-BC-12B12-hIgG1 = test: Biacore
XPL2-BC-9H4-hIgG1 = test: Biacore
XPL2-BC-8F4-hIgG1 = test: Biacore
XPL2-BC-8H11-hIgG1 = test: Biacore
XPL2-BC-7E9-hIgG1 = test: Biacore
XPL2-BC-16G11-hIgG1 = test: Biacore
XPL2-BC-7D1-hIgG1 = test: Biacore
XPL2-BC-12B9-hIgG1 = test: Biacore
XPL2-BC-5C11-hIgG1 = test: Biacore
XPL2-BC-8G2-hIgG1 = test: Biacore
XPL2-BC-13G1-hIgG1 = test: Biacore
XPL2-BC-5B6-hIgG1 = test: Biacore
XPL2-BC-7B10-hIgG1 = test: Biacore
XPL2-BC-12A6-hIgG1 = test: Biacore
XPL2-BC-8G5-hIgG1 = test: Biacore
XPL2-BC-6H10-hIgG1 = test: Biacore
Cyno PDL1 = test: Biacore; EXP1
Human PDL1 = Human PDL1 (human, UniProt Q9NZQ7 19-238); test: Biacore; EXP1

Kd (human CD28 antigen): 96 nM
B1: H1.1_L1.71 (antibody, V domains shown)
VH: EVQLLESGGGLVQPGGSLRLSCAASGFTFPSRDMSWVRQAPGKRLEWVSTISSGGSFTHYPDSVKGRFTISRDNSKNTLYLQMNSLRAEDTAVYYCVRRSGDWYFDVWGAGTTVTVSS
VL: EIVLTQSPGTLSLSPGERATLSCRVSSSIQSTNLHWYQQKPGQSPRPLIYGTSTLATGVPVRFSGSGSGTDYTLTISRLEPEDFAVYYCQQWSSYPLYTFGGGTKVEIK

Kd (human CD28 antigen): 1000 nM
B2: H1L1 (antibody, V domains shown)
VH: EVQLLESGGGLVQPGGSLRLSCAASGFTFSSYDMSWVRQAPGKRLEWVSTISSGGSFTHYPDSVKGRFTISRDNSKNTLYLQMNSLRAEDTAVYYCVRRSGDWYFDVWGAGTTVTVSS
VL: EIVLTQSPGTLSLSPGERATLSCRVSSSISSSNLHWYQQKPGQSPRPLIYGTSNLASGVPVRFSGSGSGTDYTLTISRLEPEDFAVYYCQQWSSYPLYTFGGGTKVEIK

Kd (human CD28 antigen): 180 nM
B4: H1_L1.71 (antibody, V domains shown)
VH: EVQLLESGGGLVQPGGSLRLSCAASGFTFSSYDMSWVRQAPGKRLEWVSTISSGGSFTHYPDSVKGRFTISRDNSKNTLYLQMNSLRAEDTAVYYCVRRSGDWYFDVWGAGTTVTVSS
VL: EIVLTQSPGTLSLSPGERATLSCRVSSSIQSTNLHWYQQKPGQSPRPLIYGTSTLATGVPVRFSGSGSGTDYTLTISRLEPEDFAVYYCQQWSSYPLYTFGGGTKVEIK

More lines, now with the values behind:

B3: H1.1_L1 (antibody, V domains shown)
VH: EVQLLESGGGLVQPGGSLRLSCAASGFTFPSRDMSWVRQAPGKRLEWVSTISSGGSFTHYPDSVKGRFTISRDNSKNTLYLQMNSLRAEDTAVYYCVRRSGDWYFDVWGAGTTVTVSS
VL: EIVLTQSPGTLSLSPGERATLSCRVSSSISSSNLHWYQQKPGQSPRPLIYGTSNLASGVPVRFSGSGSGTDYTLTISRLEPEDFAVYYCQQWSSYPLYTFGGGTKVEIK
Kd (human CD28 antigen): 600 nM

B5: PDL2 (ligand)
chain: LFTVTVPKELYIIEHGSNVTLECNFDTGSHVNLGAITASLQKVENDTSPHRERATLLEEQLPLGKASFHIPQVQVRDEGQYQCIIIYGVAWDYKYLTLKVKASYRKINTHILKVPETDEVELTCQATGYPLAEVSWPNVSVPANTSHSRTPEGLYQVTSVLRLKPPPGRNFSCVFWNTHVRELTLASIDLQSQMEPRTHPT
Kd (XPL2-BC-12B7-hIgG1): 8.44 nM | Kd (XPL2-BC-1G10-hIgG1): 5.87 nM | Kd (XPL2-BC-5F2-hIgG1): 11.6 nM | Kd (XPL2-BC-8H8-hIgG1): 3.75 nM | Kd (XPL2-BC-12B2-hIgG1): 15.1 nM | Kd (XPL2-BC-1E12-hIgG1): 80.7 nM | Kd (XPL2-BC-10H5-hIgG1): 64.9 nM | Kd (XPL2-BC-3A9-hIgG1): 192 nM | Kd (XPL2-BC-5F1-hIgG1): 12.5 nM | Kd (XPL2-BC-12A11-hIgG1): 21.8 nM | Kd (XPL2-BC-7D3-hIgG1): 1.49 nM | Kd (XPL2-BC-12B12-hIgG1): 73.7 nM | Kd (XPL2-BC-9H4-hIgG1): 73.2 nM | Kd (XPL2-BC-8F4-hIgG1): 7.13 nM | Kd (XPL2-BC-8H11-hIgG1): 0.525 nM | Kd (XPL2-BC-7E9-hIgG1): 0.25 nM | Kd (XPL2-BC-16G11-hIgG1): 0.491 nM | Kd (XPL2-BC-7D1-hIgG1): 5.66 nM | Kd (XPL2-BC-12B9-hIgG1): 5.88 nM | Kd (XPL2-BC-5C11-hIgG1): 1.77 nM | Kd (XPL2-BC-8G2-hIgG1): 0.39 nM | Kd (XPL2-BC-13G1-hIgG1): 5.1 nM | Kd (XPL2-BC-5B6-hIgG1): 0.765 nM | Kd (XPL2-BC-7B10-hIgG1): 1.77 nM | Kd (XPL2-BC-12A6-hIgG1): 303 nM | Kd (XPL2-BC-8G5-hIgG1): 1.09 nM | Kd (XPL2-BC-6H10-hIgG1): 6.02 nM

B6: XENP 37559 (H1L1) (bispecific antibody)
chain 1: EVQLLESGGGLVQPGGSLRLSCAASGFTFSSYDMSWVRQAPGKRLEWVSTISSGGSFTHYPDSVKGRFTISRDNSKNTLYLQMNSLRAEDTAVYYCVRRSGDWYFDVWGAGTTVTVSSASTKGPSVFPLAPSSKSTSGGTAALGCLVKDYFPEPVTVSWNSGALTSGVHTFPAVLQSSGLYSLSSVVTVPSSSLGTQTYICNVNHKPSDTKVDKKVEPKSCDKTHTCPPCPAPPVAGPSVFLFPPKPKDTLMISRTPEVTCVVVDVKHEDPEVKFNWYVDGVEVHNAKTKPREEEYNSTYRVVSVLTVLHQDWLNGKEYKCKVSNKALPAPIEKTISKAKGQPREPQVYTLPPSREEMTKNQVSLTCDVSGFYPSDIAVEWESDGQPENNYKTTPPVLDSDGSFFLYSKLTVDKSRWEQGDVFSCSVMHEALHNHYTQKSLSLSPGK
chain 2: not shown
chain 3: EIVLTQSPGTLSLSPGERATLSCRVSSSISSSNLHWYQQKPGQSPRPLIYGTSNLASGVPVRFSGSGSGTDYTLTISRLEPEDFAVYYCQQWSSYPLYTFGGGTKVEIKRTVAAPSVFIFPPSDEQLKSGTASVVCLLNNFYPREAKVQWKVDNALQSGNSQESVTEQDSKDSTYSLSSTLTLSKADYEKHKVYACEVTHQGLSSPVTKSFNRGEC
Kd (Cyno PDL1): 2.2 nM | Kd (Human PDL1): 2.6 nM
